Assay [1] concerns the target P47 (P32 with proline replaced by octahydroindole-2-carboxylic acid, Oic). Description: ITC, 25 C. (In general: In ITC the heat of successive injections is recorded.)
Assay [2] has as its target P50 (hexapeptide with Oic and a C-terminal 3,4-dichlorinated phenylalanine). Description: ITC, 25 C.

As a reminder, the Kd is the constant that tells how readily two partners part at equilibrium. Read a low Kd as tighter binding.

B1: Pseudomonas aeruginosa sliding clamp (other)
chain: MHFTIQREALLKPLQLVAGVVERRQTLPVLSNVLLVVEGQQLSLTGTDLEVELVGRVVLEDAAEPGEITVPARKLMDICKSLPNDVLIDIRVEEQKLLVKAGRSRFTLSTLPANDFPTVEEGPGSLNFSIAQSKLRRLIDRTSFAMAQQDVRYYLNGMLLEVNGGTLRSVATDGHRLAMCSLDAQIPSQDRHQVIVPRKGILELARLLTEQDGEVGIVLGQHHIRATTGEFTFTSKLVDGKFPDYERVLPRGGDKLVVGDRQQLREAFSRTAILSNEKYRGIRLQLSNGLLKIQANNPEQEEAEEEVQVEYNGGNLEIGFNVSYLLDVLGVIGTEQVRFILSDSNSSALVHEADNDDSAYVVMPMRL
notes: also called ^PaSC; P. aeruginosa
For the molecule B1, the results for the Kd in assay [1] and in assay [2] were 201 nM and 20 nM, respectively.

The record behind these values is patent US20230312646A1 (published 2023).
